From patent US20240018502A1 come the findings set out here.

Numbering of substitutions follows the chain as printed. In names and notes the source's numbering stands.

This test has as its target plasma purified human complement protein C3 (human) (UniProt P01024). Put plainly: cell-based or functional assay.

plasma purified human complement protein C3 (human), sequence (P01024 23-667, chain 1 of 2): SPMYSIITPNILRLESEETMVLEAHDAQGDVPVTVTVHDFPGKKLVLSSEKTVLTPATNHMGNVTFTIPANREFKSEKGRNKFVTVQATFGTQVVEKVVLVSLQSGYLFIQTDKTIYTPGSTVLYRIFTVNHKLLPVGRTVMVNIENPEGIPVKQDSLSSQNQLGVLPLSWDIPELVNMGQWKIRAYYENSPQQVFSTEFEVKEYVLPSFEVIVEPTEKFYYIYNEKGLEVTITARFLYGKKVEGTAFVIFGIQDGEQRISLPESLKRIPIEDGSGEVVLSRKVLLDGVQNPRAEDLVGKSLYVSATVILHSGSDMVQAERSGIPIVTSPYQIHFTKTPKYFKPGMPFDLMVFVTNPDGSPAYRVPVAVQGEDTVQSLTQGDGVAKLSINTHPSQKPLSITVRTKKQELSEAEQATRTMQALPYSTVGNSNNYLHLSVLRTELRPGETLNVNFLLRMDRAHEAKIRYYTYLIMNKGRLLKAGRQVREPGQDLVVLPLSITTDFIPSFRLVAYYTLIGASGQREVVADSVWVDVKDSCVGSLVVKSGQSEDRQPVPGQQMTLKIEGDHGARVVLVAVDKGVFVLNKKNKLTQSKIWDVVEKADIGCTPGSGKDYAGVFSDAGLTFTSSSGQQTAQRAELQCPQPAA
plasma purified human complement protein C3 (human), sequence (P01024 672-1663, chain 2 of 2): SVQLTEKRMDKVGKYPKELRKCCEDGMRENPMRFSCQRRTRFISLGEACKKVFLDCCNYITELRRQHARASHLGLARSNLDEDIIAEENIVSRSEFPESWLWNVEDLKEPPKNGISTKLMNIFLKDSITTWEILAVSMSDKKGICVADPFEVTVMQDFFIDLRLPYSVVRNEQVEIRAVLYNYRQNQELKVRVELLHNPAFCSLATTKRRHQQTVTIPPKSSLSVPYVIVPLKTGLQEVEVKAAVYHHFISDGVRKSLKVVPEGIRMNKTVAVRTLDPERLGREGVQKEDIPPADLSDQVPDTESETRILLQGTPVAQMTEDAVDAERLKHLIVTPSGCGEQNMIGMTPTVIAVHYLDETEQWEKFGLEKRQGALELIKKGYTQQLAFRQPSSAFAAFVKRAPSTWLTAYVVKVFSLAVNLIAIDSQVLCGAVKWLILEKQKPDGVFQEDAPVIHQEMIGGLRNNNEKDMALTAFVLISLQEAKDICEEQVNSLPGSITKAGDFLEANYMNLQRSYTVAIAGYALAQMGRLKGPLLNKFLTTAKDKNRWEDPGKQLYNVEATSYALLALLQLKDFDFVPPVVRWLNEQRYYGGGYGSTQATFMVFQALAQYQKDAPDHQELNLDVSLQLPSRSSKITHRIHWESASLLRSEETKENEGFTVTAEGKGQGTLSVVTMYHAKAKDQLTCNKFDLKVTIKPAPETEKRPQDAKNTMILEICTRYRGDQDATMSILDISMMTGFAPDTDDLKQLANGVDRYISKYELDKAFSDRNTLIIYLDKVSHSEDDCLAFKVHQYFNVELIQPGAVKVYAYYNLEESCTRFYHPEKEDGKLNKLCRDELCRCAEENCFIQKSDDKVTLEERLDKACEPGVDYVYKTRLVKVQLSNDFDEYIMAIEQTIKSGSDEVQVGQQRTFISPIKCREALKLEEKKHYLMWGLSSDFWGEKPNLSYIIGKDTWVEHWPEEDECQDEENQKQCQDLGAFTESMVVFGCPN

B1: MTSP-1 protease domain Q38H/I41A/D60bV/F60eR/Y60gW/D96I/F97N/T98G/F99L/C122S/G151H/Q175L/Q192D (enzyme)
chain: VVGGTDADEGEWPWQVSLHALGHGHACGASLISPNWLVSAAHCYIDVRGRRWSDPTQWTAFLGLHDQSQRSAPGVQERRLKRIISHPFFNINGLDYDIALLELEKPAEYSSMVRPISLPDASHVFPAGKAIWVTGWGHTQYGGTHALILQKGEIRVINQTTCENLLPQLITPRMMCVGFLSGGVDSCDGDSGGPLSSVEADGRIFQAGVVSWGDGCAQRNKPGVYTRLPLFRDWIKENTGV
Regarding B1, the EC50 hC3 cleavage was 2.52 nM.

B2: MTSP-1 protease domain Q38H/I41S/D60bT/F60eG/D96Y/F97N/T98G/F99L/C122S/G151N/Q175L/Q192D (enzyme)
chain: B1 chain with A26S, V47T, R50G, W52Y, I91Y, H145N
The molecule B2 showed an EC50 hC3 cleavage of 9.56 nM.

B3: MTSP-1 protease domain Q38H/I41S/D60bT/F60eS/Y60gW/F97D/T98P/F99L/C122S/G151H/Q175L/Q192E (enzyme)
chain: B1 chain with A26S, V47T, R50S, I91D, N92D, G93P, D188E
In turn, B3 yielded an EC50 hC3 cleavage of 25.7 nM.

B4: MTSP-1 protease domain Q38H/I41S/D60bT/F60eS/Y60gW/F97D/F99L/C122S/G151N/Q175L/Q192D (enzyme)
chain: B1 chain with A26S, V47T, R50S, I91D, N92D, G93T, H145N
In the case of B4, the EC50 hC3 cleavage came out at 4.9 nM.

B5: MTSP-1 protease domain Q38H/I41S/D60bT/F60eG/Y60gW/D96V/F97N/T98G/F99L/C122S/G151N/Q175L/Q192D (enzyme)
chain: B1 chain with A26S, V47T, R50G, I91V, H145N
B5 had an EC50 hC3 cleavage of 4.47 nM.

B6: MTSP-1 protease domain Q38V/I41G/F60eG/Y60gW/D96P/F97N/T98G/F99L/C122S/G151N/Q175L/Q192D (enzyme)
chain: B1 chain with H23V, A26G, V47D, R50G, I91P, H145N
Regarding B6, the EC50 hC3 cleavage is 27.4 nM.

B7: MTSP-1 protease domain Q38H/I41A/D60bV/F60eR/Y60gW/F97D/F99L/C122S/G151H/Q175L/Q192D (enzyme)
chain: B1 chain with I91D, N92D, G93T
In turn, B7 had an EC50 hC3 cleavage of 3.72 nM.

B8: MTSP-1 protease domain Q38H/I41A/D60bV/F60eR/Y60gW/F97D/F99L/C122S/G151N/Q175L/Q192D (enzyme)
chain: B1 chain with I91D, N92D, G93T, H145N
B8 yielded an EC50 hC3 cleavage of 7.04 nM.

B9: MTSP-1 protease domain Q38K/I41G/F60eG/Y60gW/D96P/F97N/T98G/F99L/C122S/G151N/Q175L/Q192D (enzyme)
chain: B1 chain with H23K, A26G, V47D, R50G, I91P, H145N
B9 returned an EC50 hC3 cleavage of 62.7 nM.

B10: MTSP-1 protease domain Q38Y/I41E/D60bS/F60eV/Y60gF/D96W/F97N/T98G/F99L/C122S/G151N/Q175L/Q192D (enzyme)
chain: B1 chain with H23Y, A26E, V47S, R50V, W52F, I91W, H145N
The molecule B10 returned an EC50 hC3 cleavage of 227 nM.

B11: MTSP-1 protease domain Q38H/I41S/D60bT/F60eS/Y60gW/D96I/F97N/T98G/F99L/C122S/G151N/Q175L/Q192D (enzyme)
chain: B1 chain with A26S, V47T, R50S, H145N
The molecule B11 displayed an EC50 hC3 cleavage of 3.04 nM.

B12: MTSP-1 protease domain Q38H/I41A/D60bV/F60eR/Y60gW/D96Q/F97E/ins97aD/T98S/F99L/C122S/G151N/Q175L/Q192R (enzyme)
chain: VVGGTDADEGEWPWQVSLHALGHGHACGASLISPNWLVSAAHCYIDVRGRRWSDPTQWTAFLGLHDQSQRSAPGVQERRLKRIISHPFFNQEDSLDYDIALLELEKPAEYSSMVRPISLPDASHVFPAGKAIWVTGWGHTQYGGTNALILQKGEIRVINQTTCENLLPQLITPRMMCVGFLSGGVDSCRGDSGGPLSSVEADGRIFQAGVVSWGDGCAQRNKPGVYTRLPLFRDWIKENTGV
B12 came in with an EC50 hC3 cleavage of 4.6 nM.

B13: MTSP-1 protease domain Q38H/I41A/D60bV/F60eR/Y60gW/D96P/ins97aN/F97W/T98G/F99L/C122S/G151H/Q175L/Q192E (enzyme)
chain: B12 chain with Q91P, E92W, D93N, S94G, N146H, R189E
Turning to B13, the EC50 hC3 cleavage came to 1.11 nM.

B14: MTSP-1 protease domain Q38H/I41A/D60bV/F60eR/Y60gW/D96I/ins97aN/F97Y/T98G/F99L/C122S/G151H/Q175L/Q192D (enzyme)
chain: B12 chain with Q91I, E92Y, D93N, S94G, N146H, R189D
Consider B14, for which the EC50 hC3 cleavage came out at 1.57 nM.

B15: MTSP-1 protease domain Q38H/I41A/D60bV/F60eR/Y60gW/D96P/ins97aN/F97W/T98G/F99L/C122S/G151N/Q175L/Q192D (enzyme)
chain: B12 chain with Q91P, E92W, D93N, S94G, R189D
As for B15, the EC50 hC3 cleavage worked out at 2.54 nM.

B16: MTSP-1 protease domain Q38H/I41A/D60bV/F60eR/Y60gW/D96P/ins97aN/F97W/T98G/F99L/C122S/G151H/Q175L/Q192D (enzyme)
chain: B12 chain with Q91P, E92W, D93N, S94G, N146H, R189D
B16 registered an EC50 hC3 cleavage of 1.83 nM.

B17: MTSP-1 protease domain with C122S (enzyme)
chain: VVGGTDADEGEWPWQVSLHALGQGHICGASLISPNWLVSAAHCYIDDRGFRYSDPTQWTAFLGLHDQSQRSAPGVQERRLKRIISHPFFNDFTFDYDIALLELEKPAEYSSMVRPISLPDASHVFPAGKAIWVTGWGHTQYGGTGALILQKGEIRVINQTTCENLLPQQITPRMMCVGFLSGGVDSCQGDSGGPLSSVEADGRIFQAGVVSWGDGCAQRNKPGVYTRLPLFRDWIKENTGV
B17 gave an EC50 of hC3 cleavage of 13.9 nM.

B18: MTSP-1 protease domain Q38H/I41S/D60bT/F60eT/ins97aV/F97D/T98P/F99L/C122S/H143Q/G151Q/Q175L/Q192G (enzyme)
chain: VVGGTDADEGEWPWQVSLHALGHGHSCGASLISPNWLVSAAHCYIDTRGTRYSDPTQWTAFLGLHDQSQRSAPGVQERRLKRIISHPFFNDDVPLDYDIALLELEKPAEYSSMVRPISLPDASHVFPAGKAIWVTGWGQTQYGGTQALILQKGEIRVINQTTCENLLPQLITPRMMCVGFLSGGVDSCGGDSGGPLSSVEADGRIFQAGVVSWGDGCAQRNKPGVYTRLPLFRDWIKENTGV
For B18, the EC50 hC3 cleavage is 6.69 nM.

B19: MTSP-1 protease domain Q38H/I41S/D60bT/F60eS/Y60gW/D96K/ins97aV/F97G/T98P/F99L/C122S/G151H/Q175L/Q192D (enzyme)
chain: B18 chain with T50S, Y52W, D91K, D92G, Q139H, Q146H, G189D
In turn, B19 returned an EC50 hC3 cleavage of 6.86 nM.

B20: MTSP-1 Q38H/I41A/D60bT/F60eK/Y60gW/F97T/ins97aE/T98G/F99L/C122S/G151N/Q175L/Q192D (enzyme)
chain: B12 chain with V47T, R50K, Q91D, E92T, D93E, S94G, R189D
For B20, the EC50 of hC3 cleavage amounted to 14.4 nM.

B21: MTSP-1 protease domain Q38H/I41S/D60bT/F60eS/Y60gW/F97D/ins97aV/T98P/F99L/C122S/G151H/Q192E (enzyme)
chain: B18 chain with T50S, Y52W, Q139H, Q146H, L170Q, G189E
Consider B21, for which the EC50 hC3 cleavage was 11.9 nM.

B22: MTSP-1 protease domain Q38H/I41S/D60bT/F60eS/Y60gW/D96F/F97D/ins97aE/T98S/F99L/C122S/G151H/Q175L/Q192A (enzyme)
chain: B12 chain with A26S, V47T, R50S, Q91F, E92D, D93E, N146H, R189A
For the molecule B22, the EC50 hC3 cleavage was determined as 1.17 nM.

B23: MTSP-1 protease domain I41S/D60bT/F60eS/Y60gW/ins97aV/F97D/T98P/F99L/C122S/G151H/Q175L/Q192E (enzyme)
chain: B18 chain with H23Q, T50S, Y52W, Q139H, Q146H, G189E
On to B23, for which the EC50 hC3 cleavage amounted to 6.33 nM.

B24: MTSP-1 protease domain Q38H/I41S/D60bT/F60eS/Y60gW/ins97aV/T98P/F99L/C122S/G151H/Q175L/Q192E (enzyme)
chain: B18 chain with T50S, Y52W, D92F, Q139H, Q146H, G189E
In turn, B24 displayed an EC50 hC3 cleavage of 3.19 nM.

B25: MTSP-1 protease domain Q38H/I41S/D60bT/F60eS/Y60gW/ins97aV/F97D/T98P/F99L/C122S/Q175L/Q192E (enzyme)
chain: B18 chain with T50S, Y52W, Q139H, Q146G, G189E
B25: the EC50 hC3 cleavage came out at 4.86 nM.

B26: MTSP-1 protease domain Q38H/D60bT/F60eS/Y60gW/ins97aV/F97D/T98P/F99L/C122S/G151H/Q175L/Q192E (enzyme)
chain: B18 chain with S26I, T50S, Y52W, Q139H, Q146H, G189E
Consider B26, for which the EC50 hC3 cleavage was found to be 66.7 nM.

B27: MTSP-1 protease domain Q38H/I41S/F60eS/Y60gW/ins97aV/F97D/T98P/F99L/C122S/G151H/Q175L/Q192E (enzyme)
chain: B18 chain with T47D, T50S, Y52W, Q139H, Q146H, G189E
For B27, the EC50 hC3 cleavage was determined as 3.83 nM.

B28: MTSP-1 protease domain Q38H/I41S/D60bT/F60eS/Y60gW/D96Y/ins97aV/F97E/T98G/F99L/C122S/G151N/Q175L/Q192D (enzyme)
chain: B12 chain with A26S, V47T, R50S, Q91Y, D93V, S94G, R189D
As to B28, the EC50 hC3 cleavage was found to be 4.13 nM.

B29: MTSP-1 protease domain Q38H/I41S/D60bT/F60eS/Y60gW/F97D/ins97aA/T98P/F99L/C122S/G151H/Q175L/Q192E (enzyme)
chain: B18 chain with T50S, Y52W, V93A, Q139H, Q146H, G189E
Molecule B29 registered an EC50 hC3 cleavage of 4.07 nM.

B30: MTSP-1 protease domain Q38H/I41S/D60bT/Y60gW/ins97aV/F97D/T98P/F99L/C122S/G151H/Q175L/Q192E (enzyme)
chain: B18 chain with T50F, Y52W, Q139H, Q146H, G189E
B30 registered an EC50 hC3 cleavage of 10.4 nM.

B31: MTSP-1 protease domain Q38H/I41S/D60bT/F60eS/Y60gW/D96L/ins97aG/F97D/T98N/F99L/C122S/G151H/Q175L/Q192E (enzyme)
chain: B18 chain with T50S, Y52W, D91L, V93G, P94N, Q139H, Q146H, G189E
For the molecule B31, the EC50 hC3 cleavage is 1.59 nM.

B32: MTSP-1 protease domain Q38H/I41S/D60bT/F60eS/Y60gW/ins97aV/F97D/T98P/F99L/C122S/G151H/Q175L (enzyme)
chain: B18 chain with T50S, Y52W, Q139H, Q146H, G189Q
The molecule B32 had an EC50 hC3 cleavage of 1.31 nM.

B33: MTSP-1 protease domain Q38H/I41S/D60bT/F60eS/Y60gW/ins97aV/F97D/F99L/C122S/G151H/Q175L/Q192E (enzyme)
chain: B18 chain with T50S, Y52W, P94T, Q139H, Q146H, G189E
In the case of B33, the EC50 hC3 cleavage came to 7.82 nM.

B34: MTSP-1 protease domain Q38H/I41S/D60bT/F60eS/Y60gW/ins97aV/F97D/T98P/C122S/G151H/Q175L/Q192E (enzyme)
chain: B18 chain with T50S, Y52W, L95F, Q139H, Q146H, G189E
Take B34: the EC50 hC3 cleavage was found to be 11.5 nM.

B35: MTSP-1 protease domain Q38H/I41S/D60bQ/F60eQ/F97D/ins97aV/T98P/F99L/C122S/H143Q/G151Q/Q175L/Q192G (enzyme)
chain: B18 chain with T47Q, T50Q
Molecule B35 displayed an EC50 hC3 cleavage of 8.5 nM.

B36: MTSP-1 protease domain Q38H/I41S/D60bS/F60eQ/ins97aV/F97D/T98P/F99L/C122S/H143A/G151N/Q175L/Q192G (enzyme)
chain: B18 chain with T47S, T50Q, Q139A, Q146N
Take B36: the EC50 hC3 cleavage was 26.3 nM.
